B1: Glucosamine-6-phosphate deaminase (NagB) from Haemophilus influenzae (enzyme)
chain: not shown
notes: Glucosamine-6-phosphate deaminase (NagB), Haemophilus influenzae; Made from a Gateway recombinant plasmid; also called HiNagB; Hi-NagB; source: E. coli BL21(DE3)*, purified (Ni-NTA, SEC)
B2: Glucosamine-6-phosphate deaminase (NagB) from Pasteurella multocida (enzyme)
chain: not shown
notes: Glucosamine-6-phosphate deaminase (NagB), Pasteurella multocida; Made from a Gateway recombinant plasmid; also called PmNagB; Pm-NagB; source: E. coli BL21(DE3)*, purified (Ni-NTA, SEC)

Experiments:
[1] = target: the molecule itself; test: crystal structure; HiNagB crystals, P21, 12 monomers in the asymmetric unit, 3.0 Å; 2% Tacsimate pH 5.0, 0.1 M sodium citrate pH 5.6, 16% PEG 3350, 0.1 M strontium chloride, 18°C
[2] = target: the molecule itself; test: crystal structure; PmNagB crystals, P21, 4 monomers in the asymmetric unit, 2.3 Å; 100 mM sodium cacodylate/HCl pH 6.5, 200 mM MgCl2, 20% PEG 1000, 18°C; analysis of crystal packing

Protein	stoichiometry N [1]	stoichiometry N [2]
B1	6	
B2		2
